The nanobody polyreactivity screen of Harvey et al. (2022)

Test: yeast display, Sf9 membrane polyspecificity reagent, FACS + sequencing; frameworks hold sequencing errors
Method in brief: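 A synthetic nanobody library was expressed on Saccharomyces cerevisiae BJ5465 by galactose induction for 36–48 hours. The library was stained for 1 hour at 4 °C with 10% biotinylated, detergent-solubilized Sf9 membrane reagent and enriched with streptavidin microbeads before FACS. Low and high (top ~1%) gates were set on anti-HA fluorescence for expression and streptavidin fluorescence for reagent binding, and each polyreactivity label reflects the gate of origin.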

Sequence	polyreactivity (PSR sort gate)
QVQLVESAVGLVQAGGSLRLSCDASGRSYYTYAMGWYRQAPGKERELVATITDGGSTYYAESVKGRFTISRDNAKNTVYLQMNSLKPEDTAVYYCAADAYQWYDWGQGTQVTVSS	low polyreactivity
QVQLVESCGALVQASGTLRLSCAASGSIFGYNTMRWYRQAPGKERELVAAIYYSGGRTYYADSVKGRFTISRDNAKNTVYLQMNSLKPEDTAVYNCAARKGYRYYYRGQGTQVTVSS	high polyreactivity
QVQLVESCGCLVQAVGSLRLSCAASRFIFRLYAMVWYRQAPGKERELVAAISSGTSTYYADSVKVRFTISRDNAKNTVYLQMNSLKPEETEVYYCAAVPRVNWSRYVYFWYDYWGEGTQVTVSS	high polyreactivity
QVQLVESCGGLDQAGGSLRLTCAASGINFWYNTMGWYRQAPRKERELVAAITYGGGSTYYADSVKGRFTISRDNAKNSVYLQMYSMKPVDTAVYYCAVRNWHLIKYLHGYSRYGYWGQGTQVTVSS	low polyreactivity
QVQLVESCGGLVQAGGSHRLSCAASGFTFTRNALGWYRQAPGKERELVAAISIRGSSTYYADSVKGRFTISRDNAKNTVYLQMNILKQEDTAVYYCSAPTFSLHGTYGYWGQGTQVTVSS	high polyreactivity
QVQLVESCGGLVQAGGSLRISCAASGRIFRPYAMGWYRQAPGPEREFVAAITSGSNTYYADSVKWRFTISRDNAKNTVYLQMNSLKPEDTAFYYCAAVQRKRAPAETAYGYWGQGPQVTVSS	high polyreactivity
QVQLVESCGGLVQAGGSLRLSCAASGFIFLPYVMGWYRQAPGKERELVAAISGGGGITYYADSVKGRFTISRDNAKNTVYLQMNSLKPEDTAVYYCAAERPVAPYDYWGQGTQVTVSS	low polyreactivity
QVQLVESCGGLVQAGGSLRLSCAASGFNIYRNAMGWYRKAPGKERELVAAISTSVGSTHYADSVKGRFTISRDNAMNTVYLQMYSLKPEDTAVYYCAKRRSIRDEFGYWGQGTQVTVSS	high polyreactivity
QVQLVESCGGLVQAGGSLRLSCAASGIIFWWYTMGWYRQAPGKERELVAAISRGGNTNYADSVKGRFTISRDNAKNTVYLQMNSLKTEDTAFYYCAADRHYRFWQYDYWGQGTQVTVSS	high polyreactivity
QVQLVESCGGLVQAGGSLRLSCAASGRIFKYNPMGWYRQAPGQERELVASITASGGRTYYADSVKGRFTISRDIAKNTVYLQMNSLKTEDTAVYYCAAGRPFSKYGYWRQGTQVTVSS	high polyreactivity
QVQLVESCGGLVQAGGSLRLSCAASGRISQNAMGWYRQPPVKERELVAAITFSGGSTYYADSVKGRFTISRDNAKNTVYLQMNSLKPEDTAVYYCNGDYGDWPTAGDYWGQGTQVTVSS	low polyreactivity
QVQLVESCGGLVQAGGSLRLSCAASGRTFTDYVMGWYRQAPGKERELVAGIRRSGGTYYADSVKGRFTISRDNAKNTVYLQMNSLKPEDTAVYYCAAPVQTGPDPEYDYWGQGTQVTVSS	low polyreactivity
QVQLVESCGGLVQAGGSLRLSCAASGSTFGYYAMGWYRQAPGKETELVAAISSRGGSTYYADSVKGRFTISRDNAKNTVYLQMNSLKPEDTADYYCAARGLFFRNRYGYWGQGTQVTVSS	high polyreactivity
QVQLVESCGGLVQAGGSLRLSCAASGSTFRFYAMGWYRQAPGKERELVAAINGSGGSTYYADSVKGRFTISRDNAKNTVYLQMNSLKPEDTAVYYCAVLYRYGYDYWGQGTQVTVSW	low polyreactivity
QVQLVESCGGLVQAGGSLRLSCAASGSTFRYYPMGWYRPATGKETELVASISIGGGSTYYADSVKGRFTISRDHAKNTVYLQMNSLKPEDTAGYYCAAERTIRAARPFFRTFDYWGQGTQVTVSS	low polyreactivity
QVQLVESCGGLVQAGGSLRLSCAASGSTFSSYAMGWYSQAPGKERELVAAISSSGGTSTYADSVKGPFTISRDNAKNTVYLQMNSLKPEDTAVYYCNTDRFRRLYDYWGQGTQVTVSS	high polyreactivity
QVQLVESCGGLVQAGGSLRLSCAASGSTFYRYAMGWYRQAPGKERELVARITRTGGITNYADSVKGRFTISRDNAKNTVYLQMNSLKPEDTAVYDCAKTNIRDHYYWGQGTQVTVSS	high polyreactivity
QVQLVESCGGLVQAGGSLRLSCAASGYIFVYNAMGWYRQAHGKERELVAAISTTGGRTYYADSVKGRFTISRDNAKNTVYLQMNSLKPEDTAVYYCAARAYYARSLFGYWGQGTQVNVSS	high polyreactivity
QVQLVESCGGLVQAGGSLRLSCAPSGRTIVYKAMGWYRQAPGKERELVAAISWSGGSPYYADSVKGRFTISRDNAKNTVNLQMNSLKPDDSAVYYCATSSYYYTIWMYYWGQGTQVTVSS	high polyreactivity
QVQLVESCGGLVQAGGSLRLSCASSGFIFFENAMGCYIQAPCKERELVAVISSSGTSTYYADSVKGRFTISRDNAKNTVYLQMTSLKPEDTAVYYCAKDYYRSYGREDYWGQGTQVTVSS	low polyreactivity
QVQLVESCGGLVQAGGSLRLSCASSGLTFSRYAMGWSRQAPGKERELVAVISRSGGSTYYADSVKGRFTISRDNAKTTVYLHMNSLKPEDTAVYYCAVRAYIKMDYWGQGTQVTVSS	high polyreactivity

Sequence	polyreactivity (PSR sort gate)
QVQLVESCGGLVQAGGSLRLSCSATGSTSVANAMGWYRQAPGKEREIVAAITGYGVSTYYADSVKGRFTISRDNAKNTVFLQMNSLKPEDTAVYYCATRGVSTSRPGYYWGQGTQVSVSS	high polyreactivity
QVQLVESCGGLVQAGGSLRLSCSSSGRIFRGNAMGWYRQAPGKERELVAAILTGVTTYYADSVKGRFTISRDNAKNTVYLQTNSLKPEDTAVYYCAAERPSRRSGYEYWGQGTQVTVSS	low polyreactivity
QVQLVESCGGLVQAGGSLRLSFAASGSILVRYAMGWYRQAPGKERELVAAITSGGSTYADSVKGRFTISRDNAKNTVYLQMNSLKPEDTAVYYCAADAYGYGGDSWGQGTLVTVSS	low polyreactivity
QVQLVESCGGLVQAGVSLRLSCAASVFKYAMGRYRQAPGKKRELVAAISSGGITSYADSVKGRFTISRDNAKNTVYLQMNSLKPEDTAVYYCNARLRHSQYAYYYWGQGTQVTLSS	high polyreactivity
QVQLVESCGGLVQEGGSLRLSCAASGFTFLRYAMGWYRQAPGKERELVAAISIPGGNTYYADSVKGRFTISRDNAKNTVYLQMNSLKPEDTAVYYCAARFGGGAARHGYWGQGTQVTVSS	high polyreactivity
QVQLVESEGGLVQAGGSLRLSFAASGSIFPYNAMGWYRQAPGKERELVAAISISGGSTYYADSVKGRFTISRDNAKNTVYLLMNSLKPEDTAVYYCAARQSLSSAFDYCGQGTQVTVSS	low polyreactivity
QVQLVESGAALVQAGGSLRLSCAASGFIIYDYMGWYRQAPGKERELVAVISYSGSSTYYADSVKGRFTISRDNAKNTDYLQMNSLKPEDTAVYYCAARNVNGWDYDYWGLGTQVTVSS	low polyreactivity
QVQLVESGAGIVQAGGSLRLSCAASGSTFGRYAMGLYTQAPGKERELVAAISASGGSTYYADSVKGRFTISRDNAKTTVYLQMNSLTPEDTAVYYCAKDRPQTRLWYYFIDDYDYRGQGTQVTVSS	high polyreactivity
QVQLVESGAGLFKAGGSLRLSCAASGRIFATNAMGWYRQAPGKERELVAAISSSGGSTYYADSVKGRFTISRDNAKNTVYLQMNSLKPEDTAVYDCAAAHSYYVHYYYWGQGTQGTVSS	high polyreactivity
QVQLVESGAGLVKAGGSLRLSCAASGRTLTGNDMGWYRQAPGKERELVAAITARGGSTYYADSVKGRFTISRDNAKNTVYLQMNSLKPEDTAVYYGATLPVRIRRDYWGQGTQVTVSS	high polyreactivity
QVQLVESGAGLVLAGGSLRLSCAASGRTFRLYAMGWYRQAPGKERELVAAISYSDGRTYYADSVKGRFTISRDNAKNTVYLQMNSLKPEDTAVYYCAAETLYVAGSYYWGQGTQVTVSS	high polyreactivity
QVQLVESGAGLVQAAGRLRLSCAASGNTFKVNVMGWYRPAPGKERQLVASITINDRSTYYADSVKGRFTISRDNAKNTVYLQMNSLKREDTEVYYCGGDLADFYPRFNYWGQGTQVSVSS	low polyreactivity
QVQLVESGAGLVQAGGILLLSSAASGRIFLFYSLGWSRQEPGKERELVAAISVRGGSTYYADSVKGRITISRDNAKNTVFLQMNSLKPEDTAVYYCNAPNYRSRFDYWGQGTQVTVSS	high polyreactivity
QVQLVESGAGLVQAGGSLRISCAASASIFAYYVMGRYREAPGKERELVAAITRSGSPYYADSVKGRFTISRDNAKNTVYLQMNSLKPEDTAVYYCAAPTDFLFWEFDYWGQGTQVTVSS	low polyreactivity
QVQLVESGAGLVQAGGSLRISCAASGRIFAQYAMGWYRQAPGKERELVAAITTTGRTYYADSVKGRFTISRDNAKNTVYLQMNSTKPEETAVYYCAVGYHAPKVSTSDPRYDYWGQGTQVTVSS	low polyreactivity
QVQLVESGAGLVQAGGSLRLICAASGRIFDRYTMGRYRQAPGKERELVAAITQRGTSTYYADSVKGRFTLSRDTAKNTVYLQMNSLKPEDTAGYYCAATALFSGLNKRYYWGQGTQLTVSS	high polyreactivity
QVQLVESGAGLVQAGGSLRLICAASGSTSTTYTMGWYRQAPGKERELVAAISYSGGSTYYADSVKGRFTISRDNAKNTVYLQMNSLKPEDTAVYYCAAQSFVGWREYESWGQGTQVTVSS	high polyreactivity
QVQLVESGAGLVQAGGSLRLRCAASGSIFPGSALGWYRQARGKERELVAAITFGGAITYYADSVKGRFTISRDNAKNTVYLLMNSLKPEDSAVYYCAAKSPRILLDYWGQGTQVTVSS	low polyreactivity
QVQLVESGAGLVQAGGSLRLRCAASRRSFRNYAMGWYRPAPGKEREVVAAIRSGVRTYYADSVKGRFTISRDNAKNTVYLQMNSLKPEDTAVYYCAVATGLLYKSHGYWGQGTQVTVSS	low polyreactivity
QVQLVESGAGLVQAGGSLRLSCAASGFIFAGYAMGLYRQAPGKERELFAAISSRGGSTYYADSVKGRFTISRDNAKNPVDLQMNSLKPEDTAVYYCNKYYYGFTPVGYKKMDYWGQGTQVIVSS	low polyreactivity
